Consider one molecule from US12060424 (AMUNIX PHARMACEUTICALS, dated 2024).

In experiment [1] the target is T1, Fc-tagged EpCAM (R&D Systems, cat #960-EP-050), human, coupled to SPR chip (human, UniProt P16422 24-265).
T1 construct: Bought reagent; also called human EpCAM; EpCAM chip; not shown: Fc tag of the bought reagent
T1 sequence (looked up): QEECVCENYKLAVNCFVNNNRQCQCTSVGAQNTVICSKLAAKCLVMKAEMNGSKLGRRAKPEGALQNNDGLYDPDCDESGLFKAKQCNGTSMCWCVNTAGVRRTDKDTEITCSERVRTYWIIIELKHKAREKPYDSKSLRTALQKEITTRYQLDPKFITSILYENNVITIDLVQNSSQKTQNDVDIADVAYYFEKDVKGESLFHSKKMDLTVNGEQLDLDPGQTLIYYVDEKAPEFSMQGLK
The experiment is described as follows: SPR.

In experiment [2] the target is recombinant human CD3 epsilon & delta (rhCD3ε & δ), Creative BioMart cat #CD3E&CD3D-219H (human) (UniProt P07766). In words: sandwich ELISA: rhCD3ε & δ coated, peroxidase-conjugated protein L detection.
In experiment [3] the target is T2, recombinant human EpCAM (rhEpCAM), coated on ELISA plate (human, UniProt P16422 24-265).
T2 construct: Bought reagent
T2 sequence (looked up): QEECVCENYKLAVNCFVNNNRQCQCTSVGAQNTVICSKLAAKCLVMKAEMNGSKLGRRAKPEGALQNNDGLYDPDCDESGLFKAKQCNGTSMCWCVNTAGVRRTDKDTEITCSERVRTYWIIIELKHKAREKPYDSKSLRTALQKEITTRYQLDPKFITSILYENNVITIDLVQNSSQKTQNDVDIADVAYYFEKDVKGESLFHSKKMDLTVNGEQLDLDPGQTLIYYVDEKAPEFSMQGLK
In words: sandwich ELISA: rhEpCAM coated, peroxidase-conjugated protein L detection.

The target of experiment [4] is T2, recombinant human EpCAM (rhEpCAM), …. In words: sandwich ELISA: rhEpCAM coated, biotin-conjugated protein L detection.
Experiment [5] has as its target T3, human CD3 on cells (CD3+ Jurkat cells; purified human CD3 positive T cells) (human, UniProt P07766 23-207). The experiment is described as follows: cell-based or functional assay.
In experiment [6] the target is T4, recombinant human HER2 (AcroBiosystems cat #HE2-H525), coated on ELISA plate (human, UniProt P04626 23-652).
T4 construct: also called HER2 antigen
The experiment is described as follows: sandwich ELISA: recombinant human HER2 coated, biotin-conjugated protein L detection.

Experiment [7] concerns the target T3, human CD3 on cells (CD3+ Jurkat cells; …). The experiment is described as follows: competition flow cytometry on CD3+ Jurkat cells.
Experiment [8] concerns the target T5, recombinant human CEA (Abcam cat #ab742), coated on ELISA plate (human, UniProt P06731 35-685, limits assumed).
T5 construct: also called CEA antigen
T5 sequence (looked up): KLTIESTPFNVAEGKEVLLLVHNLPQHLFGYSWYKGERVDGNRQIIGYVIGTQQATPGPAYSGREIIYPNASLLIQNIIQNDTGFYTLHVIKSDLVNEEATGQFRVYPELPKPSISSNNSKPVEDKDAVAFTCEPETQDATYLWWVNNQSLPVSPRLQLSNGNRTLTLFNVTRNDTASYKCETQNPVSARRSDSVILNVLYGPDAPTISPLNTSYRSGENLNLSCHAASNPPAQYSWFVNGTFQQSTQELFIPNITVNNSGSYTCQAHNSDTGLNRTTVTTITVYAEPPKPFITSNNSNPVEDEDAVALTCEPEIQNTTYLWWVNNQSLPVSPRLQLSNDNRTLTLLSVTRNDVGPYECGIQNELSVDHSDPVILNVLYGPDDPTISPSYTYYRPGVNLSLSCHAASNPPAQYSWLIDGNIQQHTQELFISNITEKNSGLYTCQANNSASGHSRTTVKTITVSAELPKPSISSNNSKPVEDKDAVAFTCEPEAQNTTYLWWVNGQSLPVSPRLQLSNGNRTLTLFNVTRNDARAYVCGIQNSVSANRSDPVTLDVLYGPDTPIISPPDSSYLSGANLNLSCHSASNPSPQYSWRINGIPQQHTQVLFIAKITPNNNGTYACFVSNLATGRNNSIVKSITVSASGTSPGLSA
The experiment is described as follows: sandwich ELISA: recombinant human CEA coated, biotin-conjugated protein L detection.

Experiment [9] deals with recombinant human CD3 epsilon & delta (rhCD3ε & δ), Creative BioMart cat #CD3E&CD3D-219H (human) (UniProt P07766). The experiment is described as follows: SPR.
Experiment [10] shares this target. The experiment is described as follows: SPR (Biacore 3000), His-tagged CD3εδ coupled to chip, ProTIA as analyte at 5-6 concentrations.
Experiment [11] concerns the target T6, human EpCAM expressed on cells (CHO cells stably transfected with human EpCAM); EpCAM-positive human tumor … (human, UniProt P16422 24-314).
T6 construct: whole, on cells; also called EpCAM-CHO; hEp-CHO 4-12B
T6 sequence (looked up): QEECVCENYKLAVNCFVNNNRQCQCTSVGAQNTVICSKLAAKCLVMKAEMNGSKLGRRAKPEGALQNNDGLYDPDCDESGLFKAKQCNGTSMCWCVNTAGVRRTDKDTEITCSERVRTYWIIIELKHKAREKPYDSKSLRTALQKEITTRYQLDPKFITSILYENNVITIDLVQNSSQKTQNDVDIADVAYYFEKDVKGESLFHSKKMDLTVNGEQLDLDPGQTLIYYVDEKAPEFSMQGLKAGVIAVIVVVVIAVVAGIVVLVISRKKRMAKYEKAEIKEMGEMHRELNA
The experiment is described as follows: competition flow cytometry on EpCAM-CHO cells.

Experiment [12] has as its target T1, Fc-tagged EpCAM (R&D Systems, cat …). In words: SPR (Biacore 3000), Fc-tagged EpCAM coupled to chip, ProTIA as analyte at 5-6 concentrations.

T3 sequence (P07766 23-207): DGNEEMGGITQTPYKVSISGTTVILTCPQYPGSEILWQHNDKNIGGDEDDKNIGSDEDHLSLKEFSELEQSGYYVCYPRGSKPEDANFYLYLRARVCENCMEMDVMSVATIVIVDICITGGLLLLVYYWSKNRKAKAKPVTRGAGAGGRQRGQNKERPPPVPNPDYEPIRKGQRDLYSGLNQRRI
recombinant human CD3 epsilon & delta (rhCD3ε & δ), Creative BioMart cat #CD3E&CD3D-219H (human), sequence (P07766 23-126, stated change not applied, chain 1 of 2): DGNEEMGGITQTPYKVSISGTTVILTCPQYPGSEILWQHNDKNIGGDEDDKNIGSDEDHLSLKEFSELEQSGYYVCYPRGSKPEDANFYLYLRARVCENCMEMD
recombinant human CD3 epsilon & delta (rhCD3ε & δ), Creative BioMart cat #CD3E&CD3D-219H (human), sequence (P04234 22-105, stated change not applied, chain 2 of 2, further chain): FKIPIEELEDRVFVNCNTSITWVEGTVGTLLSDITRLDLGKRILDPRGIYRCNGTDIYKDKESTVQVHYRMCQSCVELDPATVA

B1: protease-treated (MMP-9 cleaved) AC1476 anti-EpCAM×anti-CD3 ProTIA (bispecific antibody)
chain: DIQMTQSPSSLSASVGDRVTITCRSTKSLLHSNGITYLYWYQQKPGKAPKLLIYQMSNLASGVPSRFSSSGSGTDFTLTISSLQPEDFATYYCAQNLEIPRTFGQGTKVEIKGATPPETGAETESPGETTGGSAESEPPGEGQVQLVQSGPGLVQPGGSVRISCAASGYTFTNYGMNWVKQAPGKGLEWMGWINTYTGESTYADSFKGRFTFSLDTSASAAYLQINSLRAEDTAVYYCARFAIKGDYWGQGTLLTVSSGGGGSDIQMTQSPSSLSASVGDRVTITCRASQDIRNYLNWYQQKPGKAPKLLIYYTSRLESGVPSRFSGSGSGTDYTLTISSLQPEDFATYYCQQGNTLPWTFGQGTKVEIKGATPPETGAETESPGETTGGSAESEPPGEGEVQLVESGGGLVQPGGSLRLSCAASGYSFTGYTMNWVRQAPGKGLEWVALINPYKGVSTYNQKFKDRFTISVDKSKNTAYLQMNSLRAEDTAVYYCARSGYYGDSDWYFDVWGQGTLVTVSSGTAEAASASGLSGRSDNHSPLG
notes: mass 58,071 Da); also called MMP-9 treated AC1476; MMP-9 treated AC1516
Turning to B1, the “fold stronger binding affinity than untreated and non-cleavable ProTIA” value is approximately 10 fold in experiment [1], approximately 30 fold in [7], 10 fold in experiment [9] and approximately 10 fold in experiment [11]. For the same molecule, the EC50 in experiment [2] turned out to be 310 pM; in [3] it was 120 pM; in [4], 110 pM. In addition, the “EC50, LDH release cytotoxicity, purified human CD3 positive T cells with OVCAR-3 cells 5:1” value in experiment [5] was 0.3 pM. In addition, the “EC50, LDH release cytotoxicity, purified human CD3 positive T cells with SK-OV-3 cells 5:1” value in experiment [5] turned out to be 2.4 pM. Further, the binding result in [6] and in experiment [8] was “no binding” throughout. Further, the Kd in experiment [10] came to 2220 pM; in experiment [12], 1150 pM.
